This is an account of results in paper PMC9189065 (Cell, 2022).

Experiment [1] concerns the target mouse METAP1(1-59) (mouse, UniProt Q8BP48 1-59). The experiment can be described thus: other fluorescence titration.
Experiment [2] addresses mouse METAP1(1-79) (mouse, UniProt Q8BP48 1-79). Description: other fluorescence titration.
The target of experiment [3] is zebrafish MBP-Metap1, full length (zebrafish, UniProt Q4QRK0 1-386). Description: pull-down.

As for Ac-MEDEDECPELVPIKEKPSG-NH2 [zebrafish Zng1 N-terminal peptide, synthetic], in experiment [1], the equilibrium dissociation constant (Kd) (usually a measure of binding affinity in units of concentration) was roughly 0.1 µM and the stoichiometry N (usually the number of molecules, sites or subunits per partner or assembly) was found to be 1. Besides, in experiment [2], the Kd is roughly 0.1 µM and the “stoichiometry N” value is 1.

B1: zebrafish Zng1, full length, purified (natural protein)
chain: not shown
As to B1, in experiment [3], the binding result was “binds”.

On to Ac-EEDPAEEDCPELVPIETTQSE-NH2 [human ZNG1 N-terminal peptide, synthetic], for which, in experiment [1], the dissociation constant (Kd) was roughly 0.1 µM and the “stoichiometry N” value worked out at 1. Moreover, in experiment [2], the Kd is roughly 0.1 µM and the “stoichiometry N” value came to 1.
